What was measured:
AUC + SEC-MALS = biological target: the molecule itself; experiment: AUC + SEC-MALS
SEC-MALS = biological target: the molecule itself; experiment: SEC-MALS

Protein	stoichiometry N (AUC + SEC-MALS)	stoichiometry N (SEC-MALS)
activated CDTb (aCDTb; residues 212-876), cell-binding and pore-forming component of the C. difficile binary toxin (CDT) (domain or fragment) SDWEDEDLDTDNDNIPDSYERNGYTIKDLIAVKWEDSFAEQGYKKYVSNYLESNTAGDPYTDYEKASGSFDKAIKTEARDPLVAAYPIVGVGMEKLIISTNEHASTDQGKTVSRATTNSKTESNTAGVSVNVGYQNGFTANVTTNYSHTTDNSTAVQDSNGESWNTGLSINKGESAYINANVRYYNTGTAPMYKVTPTTNLVLDGDTLSTIKAQENQIGNNLSPGDTYPKKGLSPLALNTMDQFSSRLIPINYDQLKKLDAGKQIKLETTQVSGNFGTKNSSGQIVTEGNSWSDYISQIDSISASIILDTENESYERRVTAKNLQDPEDKTPELTIGEAIEKAFGATKKDGLLYFNDIPIDESCVELIFDDNTANKIKDSLKTLSDKKIYNVKLERGMNILIKTPTYFTNFDDYNNYPSTWSNVNTTNQDGLQGSANKLNGETKIKIPMSELKPYKRYVFSGYSKDPLTSNSIIVKIKAKEEKTDYLVPEQGYTKFSYEFETTEKDSSNIEITLIGSGTTYLDNLSITELNSTPEILDEPEVKIPTDQEIMDAHKIYFADLNFNPSTGNTYINGMYFAPTQTNKEALDYIQKYRVEATLQYSGFKDIGTKDKEMRNYLGDPNQPKTNYVNLRSYFTGGENIMTYKKLRIYAITPDDRELLVLSVD	14	
ΔRBD2-CDTb (residues 212-751), CDTb construct that lacks the C-terminal receptor binding domain 2 (domain or fragment) SDWEDEDLDTDNDNIPDSYERNGYTIKDLIAVKWEDSFAEQGYKKYVSNYLESNTAGDPYTDYEKASGSFDKAIKTEARDPLVAAYPIVGVGMEKLIISTNEHASTDQGKTVSRATTNSKTESNTAGVSVNVGYQNGFTANVTTNYSHTTDNSTAVQDSNGESWNTGLSINKGESAYINANVRYYNTGTAPMYKVTPTTNLVLDGDTLSTIKAQENQIGNNLSPGDTYPKKGLSPLALNTMDQFSSRLIPINYDQLKKLDAGKQIKLETTQVSGNFGTKNSSGQIVTEGNSWSDYISQIDSISASIILDTENESYERRVTAKNLQDPEDKTPELTIGEAIEKAFGATKKDGLLYFNDIPIDESCVELIFDDNTANKIKDSLKTLSDKKIYNVKLERGMNILIKTPTYFTNFDDYNNYPSTWSNVNTTNQDGLQGSANKLNGETKIKIPMSELKPYKRYVFSGYSKDPLTSNSIIVKIKAKEEKTDYLVPEQGYTKFSYEFETTEKDSSNIEITLIGSGTTYLDNLSITELNSTPEILDEP		7

Source: paper doi:10.1101/833699 (bioRxiv, 2019)
